From patent US20260274959A1 (FUJIAN MEDICAL UNIVERSITY, published 2026)

T1: mouse B7-H4 on cells (MC38-mH4 and E.G7-OVA-mH4 overexpressing) (mouse, UniProt Q7TSP5 25-257)
T1 construct: whole, on cells; The species of the overexpressed protein is read from the label mH4
T1 sequence (looked up): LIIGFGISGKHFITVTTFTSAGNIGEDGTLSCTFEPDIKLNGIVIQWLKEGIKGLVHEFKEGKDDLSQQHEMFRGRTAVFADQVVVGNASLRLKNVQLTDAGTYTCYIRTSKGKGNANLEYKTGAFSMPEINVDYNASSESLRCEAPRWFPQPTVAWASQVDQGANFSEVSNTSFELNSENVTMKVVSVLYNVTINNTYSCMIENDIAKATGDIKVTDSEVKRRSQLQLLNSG

T2: Human B7-H4 protein (Sino Biological, Cat #10738-H08H-100) (human, UniProt Q7Z7D3 25-258)
T2 construct: Bought protein; also called hB7-H4 protein
T2 sequence: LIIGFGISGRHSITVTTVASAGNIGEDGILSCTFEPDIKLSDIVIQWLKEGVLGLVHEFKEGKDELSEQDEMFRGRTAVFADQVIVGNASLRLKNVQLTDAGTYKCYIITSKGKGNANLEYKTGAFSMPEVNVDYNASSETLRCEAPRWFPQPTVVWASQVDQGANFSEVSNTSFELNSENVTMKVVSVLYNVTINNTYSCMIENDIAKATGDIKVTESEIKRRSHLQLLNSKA

T3: mouse B7-H4 IgC-like domain protein (from a laboratory of Fujian Medical University) (mouse, UniProt Q7TSP5 153-241, limits assumed)
T3 construct: domain: IgC-like domain
T3 sequence (looked up): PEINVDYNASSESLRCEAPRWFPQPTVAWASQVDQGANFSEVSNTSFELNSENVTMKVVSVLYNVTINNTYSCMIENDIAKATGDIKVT

B1: Npsc-A8 single-chain antibody (scFv, V domains shown)
VH: QVQLQESGGGLMQVGGSLRLSCTASGFVFGDYGMNWVRQAPGKGLEWVSLIDTYGASTFYADSVKGRFTISRDNSKQTVFLQMDGLRADDTAMYFCAKPILMFPAFDLWGPGTMVTVSS
VL: DVVMTQSPSSLSASVGDRVTITCRASQGIRNDLAWYQKKPGKAPKRLIYAASSLQSGVPSRFSGSGYGAEFSLTISSLQPEDFATYFCLHHSQYPWTFGQGTKVDIK
notes: Soluble scFv from a phage display human natural scFv library; also called Npsc-A8 scFv; not shown: The scFv linker between the two variable domains, the domain order, and the tag detected with the anti-HA-tag antibody
B2: Npsc-A8 full-length antibody (antibody, V domains shown)
VH: B1 VH
VL: DVVMTQSPSSLSASVGDRVTITCRASQGIRNDLAWYQKKPGKAPKRLIYAASSLQSGVPSRFSGSGYGAEFSLTISSLQPEDFATYFCLHHSQYPWTFGQGTKVDIKR
notes: also called Npsc-A8 antibody

Experiments:
[1] = target: T1, mouse B7-H4 on cells (MC38-mH4 and …); assay: flow cytometry on MC38-mH4 cells
Protocol: (1) Resuspension of cells: After trypsin digestion, cells were centrifuged, the supernatant was discarded, and the cells were resuspended in PBS containing 1% (v/v) FBS and counted to adjust the concentration to 2×10⁶ cells/mL. [0126] (2) Setting controls: For a blank control, an isotype control, and samples to be tested, 100 μL of the resuspended cells in step (1) was added to each tube, so that each tube contains 2×10⁵ cells. [0127] […] A negative control tube was added with 50 μL of negative single-chain antibody, which was the monoclonal single-chain antibody that was negative in ELISA in Example 3. Tubes to be tested were respectively added with 50 μL of antibody candidates (i.e., Npsc-A8, Npsc-E7, Npsc-G10). The mixture in tubes was fully mixed, and incubated at 4° C. for 30 mins. During the incubation, the tubes were shaken every 10 mins to allow the cells to be fully reacted with the antibodies. [0128] (4) Washing of cells: An appropriate amount of PBS containing 1% (v/v) FBS was added to each tube. The tubes were centrifuged at 2000 rpm for 3 mins, and the supernatant was discarded. [0129] (5) Resuspension of cells: The cells in each tube were resuspended in 100 μL of PBS containing 1% FBS. [0130] […]

[2] = target: T2, Human B7-H4 protein (Sino Biological, …); assay: ELISA, human B7-H4 protein coated at 2 µg/mL, scFv titrated from 20 to 0.05 µg/mL
Protocol: 4.2 Measurement of Affinity of the Npsc-A8 scFv [0142] (1) ELISA plate was placed in a clean bench, and activated under UV irradiation for more than 30 mins. Human B7-H4 protein (Sinobiological, a catalog number: 10738-HO8H-100) was coated onto wells of the ELISA plate overnight at 4° C. at 2 μg/mL. The Npsc-A8 single-chain antibody was diluted to 20 μg/mL, 10 μg/mL, 7.5 μg/mL, 5 μg/mL, 2.5 μg/mL, 1 μg/mL, 0.5 μg/mL, 0.25 μg/mL, 0.1 μg/mL, and 0.05 μg/mL, which were respectively added to wells in 100 μL per well. [0143] (2) The remaining steps were conducted according to steps (7) to (14) in Example 3. [0144] (3) The OD450 nm value was measured. A standard curve was plotted, and the EC₅₀ value was obtained.

[3] = target: T3, mouse B7-H4 IgC-like domain protein …; assay: ELISA, protein coated at 2 µg/mL
Protocol: (1) A 96-well ELISA plate was placed in a clean bench, and activated under UV irradiation for more than 30 mins. The human B7-H4 protein (Sinobiological, a catalog number: 10738-HO8H-100), mouse B7-H4 protein (from a laboratory of Fujian Medical University), mouse B7-H4 IgV-like domain protein (from a laboratory of Fujian Medical University), and mouse B7-H4 IgC-like domain protein (from a laboratory of Fujian Medical University) were respectively coated onto wells of the 96-well ELISA plate at a concentration of 2 μg/mL, and incubated at 4° C. overnight. The Npsc-A8 full-length antibody protein obtained in Example 5 was diluted to 10 μg/mL with PBS buffer, and added to wells in 100 μL per well. [0165] (2) The remaining steps were conducted according to steps (6) to (13) in Example 3. 6H3 and 8H4 were used as control antibodies. 6H3 is a mouse anti-human B7-H4 IgC domain antibody, referring to patent application publication number CN 104955475 A. 8H4 is a hamster anti-human B7-H4 IgV domain antibody, referring to DOI: 10.1016/s1074-7613 (03) 00152-3. [0166] (3) OD450 nm value was measured.

[4] = target: T1, mouse B7-H4 on cells (MC38-mH4 and …); assay: flow cytometry on MC38-mH4 and E.G7-OVA-mH4 cells; the filing adds that at the same concentration it binds human tumor cells at a higher affinity than mouse tumor cells
Protocol: A negative control tube was added with 50 μL of negative single-chain antibody, which was the monoclonal single-chain antibody that was negative in ELISA in Example 3. Tubes to be tested were respectively added with 50 μL of antibody candidates (i.e., Npsc-A8, Npsc-E7, Npsc-G10). The mixture in tubes was fully mixed, and incubated at 4° C. for 30 mins. During the incubation, the tubes were shaken every 10 mins to allow the cells to be fully reacted with the antibodies. [0128] (4) Washing of cells: An appropriate amount of PBS containing 1% (v/v) FBS was added to each tube. The tubes were centrifuged at 2000 rpm for 3 mins, and the supernatant was discarded. [0129] (5) Resuspension of cells: The cells in each tube were resuspended in 100 μL of PBS containing 1% FBS. [0130] (6) Incubation with secondary antibody: An appropriate amount of fluorescently labeled secondary antibody was added to the isotype control tube and the test tubes, mixed thoroughly, and incubated at 4° C. in the dark for 30 mins. During the incubation, the tubes were shaken every 10 mins. [0131] (7) Washing of cells: 2 mL PBS was added to each tube, the tubes were centrifuged at 2000 rpm for 3 mins, and the supernatant was discarded. This process was conducted twice. [0132] (8) On-machine testing: Cells in each tube were resuspended in 200 μL PBS. […]

| Binder | binding result [1] | EC50 [2] [µg/mL] | binding result [3] | binding result [4] |
| --- | --- | --- | --- | --- |
| B1 | binds | 2.02 |  |  |
| B2 |  |  | no binding (tested: 10 µg/mL) | binds |
